Source: publication PMC10707181, “Neuronal Scaffold Protein ARMS Interacts with Synaptotagmin-4 C2AB through the Ankyrin Repeat Domain with an Unexpected Mode” (International Journal of Molecular Sciences, 2023)

Assays:
ARMS R1-11 K180A [1] = biological target: T1, ARMS R1-11 K180A (rat, UniProt Q9EQG6 1-365, K180A); experiment: ITC; ARMS proteins (200 μM) in the syringe, Syt4 proteins (20 μM) in the cell; 25 °C; 50 mM Tris, 100 mM NaCl, 1 mM EDTA, 1 mM DTT, pH 7.8; one-site binding model; conditions: both partners purified
T1 construct: ARMS (Kidins220), rat, UniProt Q9EQG6, residues 1-365 (R1-11) with K180A; also called ARMS K180A; source: E. coli BL21 (DE3), purified (Ni-NTA, size-exclusion chromatography)
T1 sequence (looked up): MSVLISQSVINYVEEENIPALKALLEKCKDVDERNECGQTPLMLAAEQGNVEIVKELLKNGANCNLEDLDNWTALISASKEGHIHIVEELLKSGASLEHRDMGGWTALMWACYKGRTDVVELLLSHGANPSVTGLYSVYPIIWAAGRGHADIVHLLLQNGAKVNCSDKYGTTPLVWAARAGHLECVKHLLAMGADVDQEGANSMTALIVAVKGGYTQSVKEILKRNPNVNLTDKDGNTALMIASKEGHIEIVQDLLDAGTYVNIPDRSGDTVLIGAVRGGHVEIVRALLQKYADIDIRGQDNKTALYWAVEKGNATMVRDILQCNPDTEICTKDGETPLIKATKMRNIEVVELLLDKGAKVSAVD

[2] = biological target: T2, ARMS ankyrin repeats 1–11 (R1-11, residues 1–365) (rat, UniProt Q9EQG6 1-365); experiment: as above; conditions: both partners purified
T2 construct: ARMS (Kidins220), rat, UniProt Q9EQG6, residues 1-365: ankyrin repeats 1-11; also called ARMS R1-11; ARMS R1-11 WT; source: E. coli BL21 (DE3), purified (Ni-NTA, size-exclusion chromatography)
T2 sequence (looked up): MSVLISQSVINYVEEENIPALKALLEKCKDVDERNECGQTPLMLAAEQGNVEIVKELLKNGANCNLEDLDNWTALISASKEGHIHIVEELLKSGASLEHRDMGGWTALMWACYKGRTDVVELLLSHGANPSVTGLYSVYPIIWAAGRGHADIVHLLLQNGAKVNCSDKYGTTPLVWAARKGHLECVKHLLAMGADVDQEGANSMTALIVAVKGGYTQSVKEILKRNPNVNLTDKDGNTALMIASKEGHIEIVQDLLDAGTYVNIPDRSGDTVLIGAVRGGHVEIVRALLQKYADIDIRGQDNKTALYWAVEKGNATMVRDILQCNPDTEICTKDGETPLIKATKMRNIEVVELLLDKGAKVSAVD

ARMS R1-11 K180A [3] = biological target: T3, ARMS R1-11 K180A (rat, UniProt Q9EQG6 1-365, K180A); experiment: ITC
T3 sequence: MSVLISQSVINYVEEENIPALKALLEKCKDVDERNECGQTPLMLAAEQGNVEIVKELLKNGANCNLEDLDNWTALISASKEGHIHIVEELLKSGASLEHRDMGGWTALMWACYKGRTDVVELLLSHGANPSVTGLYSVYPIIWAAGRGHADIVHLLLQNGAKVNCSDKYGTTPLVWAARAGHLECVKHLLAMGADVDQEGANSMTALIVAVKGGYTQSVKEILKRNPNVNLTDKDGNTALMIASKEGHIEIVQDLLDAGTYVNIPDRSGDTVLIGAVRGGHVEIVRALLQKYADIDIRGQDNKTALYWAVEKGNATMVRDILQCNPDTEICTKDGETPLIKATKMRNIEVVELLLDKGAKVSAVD

[4] = biological target: T4, ARMS protein N-terminal region (NT, residues 1–455) (rat, UniProt Q9EQG6 1-455); experiment: ITC; ARMS proteins (200 μM) in the syringe, Syt4 proteins (20 μM) in the cell; 25 °C; 50 mM Tris, 100 mM NaCl, 1 mM EDTA, 1 mM DTT, pH 7.8; one-site binding model; conditions: both partners purified
T4 construct: ARMS (Kidins220), rat, UniProt Q9EQG6, residues 1-455: N-terminal region with the entire ankyrin repeat domain; also called ARMS NT; Kidins220 NT; source: E. coli BL21 (DE3), purified (Ni-NTA, size-exclusion chromatography)
T4 sequence (looked up): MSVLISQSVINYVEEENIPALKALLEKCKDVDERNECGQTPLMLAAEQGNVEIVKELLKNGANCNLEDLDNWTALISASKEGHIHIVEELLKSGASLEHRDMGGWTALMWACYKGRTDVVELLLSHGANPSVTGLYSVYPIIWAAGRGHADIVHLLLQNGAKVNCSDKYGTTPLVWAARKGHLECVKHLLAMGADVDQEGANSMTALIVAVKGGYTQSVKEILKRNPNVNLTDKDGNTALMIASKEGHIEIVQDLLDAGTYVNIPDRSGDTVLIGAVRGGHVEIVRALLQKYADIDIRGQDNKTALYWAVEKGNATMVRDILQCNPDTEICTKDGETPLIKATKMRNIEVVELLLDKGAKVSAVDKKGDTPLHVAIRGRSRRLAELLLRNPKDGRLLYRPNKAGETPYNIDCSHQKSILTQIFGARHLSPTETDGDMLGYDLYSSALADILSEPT

B1: Syt4 132–425 (domain or fragment, human, UniProt Q9H2B2-1 132-425, looked up)
chain: ESVSPESLKSSTSLTSEEKQEKLGTLFFSLEYNFERKAFVVNIKEARGLPAMDEQSMTSDPYIKMTILPEKKHKVKTRVLRKTLDPAFDETFTFYGIPYTQIQELALHFTILSFDRFSRDDIIGEVLIPLSGIELSEGKMLMNREIIKRNVRKSSGRGELLISLCYQSTTNTLTVVVLKARHLPKSDVSGLSDPYVKVNLYHAKKRISKKKTHVKKCTPNAVFNELFVFDIPCEGLEDISVEFLVLDSERGSRNEVIGQLVLGAAAEGTGGEHWKEICDYPRRQIAKWHVLCDG
notes: source: E. coli BL21 (DE3), purified (Ni-NTA, size-exclusion chromatography)
ARMS R1-11 K180A [1]
  binding result: binds
[2]
  binding result: binds
ARMS R1-11 K180A [3]
  Kd: 11 µM

B2: Syt4 132–425 K284A (domain or fragment, human, UniProt Q9H2B2-1 132-425, looked up)
chain: ESVSPESLKSSTSLTSEEKQEKLGTLFFSLEYNFERKAFVVNIKEARGLPAMDEQSMTSDPYIKMTILPEKKHKVKTRVLRKTLDPAFDETFTFYGIPYTQIQELALHFTILSFDRFSRDDIIGEVLIPLSGIELSEGKMLMNREIIKRNVRASSGRGELLISLCYQSTTNTLTVVVLKARHLPKSDVSGLSDPYVKVNLYHAKKRISKKKTHVKKCTPNAVFNELFVFDIPCEGLEDISVEFLVLDSERGSRNEVIGQLVLGAAAEGTGGEHWKEICDYPRRQIAKWHVLCDG
notes: also called Syt4 K284A variant; source: E. coli BL21 (DE3), purified (Ni-NTA, size-exclusion chromatography)
[2]
  binding result: binds

B3: Syt4 132–425 Q186A (domain or fragment, human, UniProt Q9H2B2-1 132-425, looked up)
chain: ESVSPESLKSSTSLTSEEKQEKLGTLFFSLEYNFERKAFVVNIKEARGLPAMDEASMTSDPYIKMTILPEKKHKVKTRVLRKTLDPAFDETFTFYGIPYTQIQELALHFTILSFDRFSRDDIIGEVLIPLSGIELSEGKMLMNREIIKRNVRKSSGRGELLISLCYQSTTNTLTVVVLKARHLPKSDVSGLSDPYVKVNLYHAKKRISKKKTHVKKCTPNAVFNELFVFDIPCEGLEDISVEFLVLDSERGSRNEVIGQLVLGAAAEGTGGEHWKEICDYPRRQIAKWHVLCDG
notes: also called Syt4 Q186A; source: E. coli BL21 (DE3), purified (Ni-NTA, size-exclusion chromatography)
[2]
  binding result: binds

B4: Syt4 C2AB (residues 151–425) (domain or fragment, human, UniProt Q9H2B2-1 151-425, looked up)
chain: QEKLGTLFFSLEYNFERKAFVVNIKEARGLPAMDEQSMTSDPYIKMTILPEKKHKVKTRVLRKTLDPAFDETFTFYGIPYTQIQELALHFTILSFDRFSRDDIIGEVLIPLSGIELSEGKMLMNREIIKRNVRKSSGRGELLISLCYQSTTNTLTVVVLKARHLPKSDVSGLSDPYVKVNLYHAKKRISKKKTHVKKCTPNAVFNELFVFDIPCEGLEDISVEFLVLDSERGSRNEVIGQLVLGAAAEGTGGEHWKEICDYPRRQIAKWHVLCDG
notes: also called Syt4 CAB; source: E. coli BL21 (DE3), purified (Ni-NTA, size-exclusion chromatography)
[2]
  Kd: ~7 µM

B5: full length of the cytoplasmic region of Syt4 (CD, residues 41–425) (domain or fragment, human, UniProt Q9H2B2-1 41-425, looked up)
chain: KSSKSNKTPPYKFVHVLKGVDIYPENLNSKKKFGADDKNEVKNKPAVPKNSLHLDLEKRDLNGNFPKTNLKPGSPSDLENATPKLFLEGEKESVSPESLKSSTSLTSEEKQEKLGTLFFSLEYNFERKAFVVNIKEARGLPAMDEQSMTSDPYIKMTILPEKKHKVKTRVLRKTLDPAFDETFTFYGIPYTQIQELALHFTILSFDRFSRDDIIGEVLIPLSGIELSEGKMLMNREIIKRNVRKSSGRGELLISLCYQSTTNTLTVVVLKARHLPKSDVSGLSDPYVKVNLYHAKKRISKKKTHVKKCTPNAVFNELFVFDIPCEGLEDISVEFLVLDSERGSRNEVIGQLVLGAAAEGTGGEHWKEICDYPRRQIAKWHVLCDG
notes: also called Synaptotagmin-4 CD; source: E. coli BL21 (DE3), purified (Ni-NTA, size-exclusion chromatography)
[4]
  Kd: ~17 µM
